A short description of the data set: label from the status in PepcDB records.
Regarding “MAEPSQAPTPAPAAQPRPLQSPAPAPTPTPAPSPASAPIPTPTPAPAPAPAAAPAGSTGTGGPGVGSGGAGSGGDPARPGLSQQQRASQRKAQVRGLPRAKKLEKLGVFSACKANETCKCNGWKNPKPPTAPRMDLQQPAANLSELCRSCEHPLADHVSHLENVSEDEINRLLGMVVDVENLFMSVHKEEDTDTKQVYFYLFKLLRKCILQMTRPVVEGSLGSPPFEKPNIEQGVLNFVQYKFSHLAPRERQTMFELSKMFLLCLNYWKLETPAQFRQRSQAEDVATYKVNYTRWLCYCHVPQSCDSLPRYETTHVFGRSLLRSIFTVTRRQLLEKFRVEKDKLVPEKRTLILTHFPKFLSMLEEEIYGANSPIWESGFTMPPSEGTQLVPRPASVSAAVVPSTPIFSPSMGGGSNSSLSLDSAGAEPMPGEKRTLPENLTLEDAKRLRVMGDIPMELVNEVMLTITDPAAMLGPETSLLSANAARDETARLEERRGIIEFHVIGNSLTPKANRRVLLWLVGLQNVFSHQLPRMPKEYIARLVFDPKHKTLALIKDGRVIGGICFRMFPTQGFTEIVFCAVTSNEQVKGYGTHLMNHLKEYHIKHNILYFLTYADEYAIGYFKKQGFSKDIKVPKSRYLGYIKDYEGATLMECELNPRIPYTELSHIIKKQKEIIKKLIERKQAQIRKVYPGLSCFKEGVRQIPVESVPGIRETGWKPLGKEKGKELKDPDQLYTTLKNLLAQIKSHPSAWPFMEPVKKSEAPDYYEVIRFPIDLKTMTERLRSRYYVTRKLFVADLQRVIANCREYNPPDSEYCRCASALEKFFYFKLKEGGLIDK”, the protein production result is listed as “failed”. In the case of “MAESIFRKLRDGGEEGELAPALTIEETVASPFGLDVSGYLLTNLSSSILAGKSSSQGLVLITFSRSPSFYLQLLKQKGIVVSSSSKWIRILDCYTDPLGWIDQSSTSFSEGSSLIKLHKCVSDLKKLFSSIIEAGRVRSLSKGLYEIKSDCFGAELVGTGKTRFCVAIDSKREVIIYLNFESAQISSVFWSLNTDLHQEKVTNALEYISTMKANLEPLCPSSDGQRNALENLFSVHQDFGKGRFHVRFKLRKGRVRVMSEEYHVDQSGINFSPISSVDTVIAATKSLLPKASYLDLLFNYLVQFNLQLSEKERVEKEKVVLPFEHQDDGKSNEIYDGRRSLVDGKIETTPLSSMELQTDVVSSGKGGEIIYFRDSDDEHPDSDEDPDDDLDI” it was “not failed”. In the case of “MAESPRRETLIGGAVVLLGVALLAATSINRHDASGQAGAYQVEAVFNRTDGIGIGSPVRLAGIPIGRIVGHKLDPEYRAIVTMRLDLPNELPDDTAAKIQTDGLLGSKYIELVSLGGGYGTIAPGGRLDYSQDSVIVEDLLVKIVAMAKIKRGLDPDIPAAEQQKAKAASHPQAPPPGGAGDPGDPFGGGAVAPPEVNPFAPGPFEDDPPPPEPGVFSPDPGRDGVSEPPPAQDTRHDMRTNTLNDTAGTAPGAVTLASLPAVQADVEEGR” it was “failed”. In the case of “MAESTIITGQFVRISQVPASLGERILARIIDYFLLFIYILATSYILGKLNIHAFSGSTFFLLFLFIYLPVLCYSLLCEVFNQGQSAGKKLMNIRVVKADGTTPSLSAYLLRWLLYGIDVTITGGLGVLVILLTKNSQRLGDLAAGTMVIKEKNYRKIQVSLDEFDYLTKGYHPSFPSAADLSLEQINVISKALELHHKDRTRHIAQLAPKVRALLSVDQTNINDEKFLQTVVRDYQYYALEEI” it was “failed”; in that of “MAETAPLRVQLIAKTDFLAPPDVPWTTDADGGPALVEFAGRACYQSWSKPNPKTATNAGYLRHIIDVGHFSVLEHASVSFYITGISRSCTHELIRHRHFSYSQLSQRYVPEKDSRVVVPPGMEDDADLRHILTEAADAARATYSELLAKLEAKFADQPNAILRRKQARQAARAVLPNATETRIVVTGNYRAWRHFIAMRASEHADVEIRRLAIECLRQLAAVAPAVFADFEVTTLADGTEVATSPLATEALEHHHHHH”, “not failed”. Consider “MAETIQNFLTEYYSIAIPLSILINIIISLLGFIPSIFLTAINIQLFGVTNGTVISIAGEALGAIISFYIYRMGLQKFTHDKVNKYPKVERLLYVEGREAFLLVLSFRLIPFIPSSIVTLFAALGKMSLLSFSIASTIGKIPALLIEVYSAYHVMNGTNEAKWIVTIAGCIGLYYLWKKWRKK”, for which the protein production result was “failed”. To “MAETSALPTGFGELEVLAVGMVLLVEALSGLSLNTLTIFSFCKTPELRTPCHLLVLSLALADSGISLNALVAATSSLLRRWPYGSDGCQAHGFQGFVTALASICSSAAIAWGRYHHYCTRSQLAWNSAVSLVLFVWLSSAFWAALPLLGWGHYDYEPLGTCCTLDYSKGDRNFTSFLFTMSFFNFAMPLFITITSYSLMEQKLGKSGHLQVNTTLPARTLLLGWGPYAILYLYAVIADVTSISPKLQMVPALIAKMVPTINAINYALGNEMVCRGIWQCLSPQKREKDRTK” belongs “failed”; to “MAEVHVIGQIMGASGFSESSLFCKWGIHTGAAWKLLSGVREGQTQVDTPQIGDMAYWSHPIDLHFATKGLQGWPRLHFQVWSQDSFGRCQLAGYGFCHVPSSPGTHQLACPTWRPLGSWREQLARAFVGGGPQLLHGDTIYSGADRYRLHTAAGGTVHLEIGLLLRNFDRYGVEC”, “failed”. “MAEVRQNPVVIVPGVLFWDSLYEVMREALSTWIPAEKIAIVPVNLLDWLGFPPSPERSTNRVMAALDRTVRAMASRFPGEPVTIVAHSGGGTVAMIYLLERPFQGDVYAVNGLVGRLVTLGTPFHTHEHFAKIKTDFIFKHLGPEFFQKYQVVSVVSNQYKGSLDGGMIEKMCYMFYRGVTDDGNLAGDGVVPARSCFLDGAKNVTILECEHLPAPHTKWYGTKDGVEQWIEWL”: the protein production entry is on record as “failed”. Consider “MAFDLQEQEQIDSLKAFWQQWGKLIGGAVLAVSLGYLGYKAYGMYQRGQSEKAAAAYEAVDDAVAAKDIAKLKSAAQQLQGEYAGTLYASRAALVLAKAAFDKNDPALAASQLEWVLKNGKDEELQAIARLRLASLLLDQKKFDGAIGELNQAHPAAFDAEFLELKGDVFVAKGDSNGARDAYKAALAKMQGESPNRQLVQTKLDALGG”, for which the protein production result is “failed”. In the case of “MAFNGAMSVGAQISDAVILAHSPKSCTHIMYQTISSAGRRTLFERGALLPVSLAPNLESTDMGEAEMIFGGMEKLEEKILELKARQPRAIVVVSACPAGIIGDDIGRTRRFSEPGLPVVTLKTDGNLAGDYLQGMLMAYTSLARQVIRLEHHHHHH” it was “failed”. Turning to “MAFQVKIHQIRAFVEVARQGSIRGASRMLNMSQPALSKSIQELEEGLAAQLFFRRSKGVTLTDAGESFYQHASLILEELRAAQEDIRQRQGQLAGQINIGMGASISRSLMPAVISRFHQQHPQVKVRIMEGQLVSMINELRQGELDFTINTYYQGPYDHEFTFEKLLEKQFAIFCRPGHPAIGARSIKQLLDYSWTMPTPHGSYYKQLSELLDDQAQTPQVGVVCETFSACISLVAKSDFLSKLPEEMGCDPLHGQGLVMLPVSEILPKAAYYLIQRRDSRQTPLTASLITQFRRECGYLQS”, the protein production result was “failed”. In the case of “MAFRKPDEIAEAAIEAGMKKIKLPLPSLLVLGFLGGAFIALGYLLDIRVIGDLPKEWGSLSSLIGAAVFPVGLILVVLAGAELITGNMMSVAMALFSRKISVKELAINWGIVTIMNLIGALFVAYFFGHLVGLTETGPYLEKTIAVAQGKLDMSFGKVLISAIGCNWLVCLAVWLSFGAQDAAGKILGIWFPIMAFVAIGFQHVVANMFVIPAAIFAGSFTWGQFIGNIIPAFIGNVIGGAVFVGLIYFIAYHKKDRSRKEMKQVS” it was “failed”; in that of “MAFSVAYDLIPNKLIKDIDEMNQWLHDKINRAVYLVGFATQQSDYEYKLYELFKALDELEERLKKQLFLFGNQLTESDLYLLATLERFDNIYFCLFKCSLKRIADYPALFRYHNQLRGMESLASTYQPVLTKEHYFMSTMHVLGLEHHHHHH”, “failed”; in that of “MAGEKAQKKGKEKWKEKTWYTVESPPYLGSKEVTVALGEDPESMVNRIVEVPISDLTGNFKKSNEKALFRITGCEGTKCKTIFIGHYIGDDYIRRLVRRRKERIDIIEDVKTSDGSIITVKIVVVSDGKLTNTKKSEIRKALTSFIVSKGSQLSYADFVRYLIGDDSYNDMVEATKNIYPLRKIEIRKSELVSLSGMQEPQKNEPAPGGEAIAQNLEHHHHHH”, “not failed”. “MAGESGAPIRCRLLPIDMDAALGPPEQMAELEEDLTPMMAQYYELCRQYDDALVLFQVGDFYEAFCAAAKRVARLCEITLTQREDSTGEYPMAGIPIDNAESYVETLLDAGYRVAIADQVEDPDEVSGVVERAVTRIVTPGTLTESELLGGADNNYVAALTAGERYGLALLDISTGDCYATSVGSESAVADELSRFGPAEAIVGPDVDVDRDAVFGPACLVTRYDADAFAQDRAEDRVGQYFGPPERLLAGGAEIRACGGLLAYAEYTRGSSGAVGPDGEPVDPDVDPAGTLDYLNHLTRYDPREYMLLDAVAVESLELFKRRSVRGHENRTLVDTVDETACALGRRKLTDWLRRPLLDADRIEARHGAVAELQRDPATREELSALLAEVYDLERLISRVSRGRANARDLRSLAATLSVVPDIRDHLADADARLLADLHATLDPLAETREEIEAAIRPDPPQQVTEGGVIREGYDEELDRLRSTEQSGKEWIDELEASERERTGIDSLKVGHTSVHGYYIEVTNANLDAVPEDYQRRQTLKNSERYYTPALKEREDEILRAESAADDLEYDLFCAVRDEVADEAERVQALADRLARLDVLVSFAEVAAQYDYCRPTVGSDGIDVTAGRHPVVERTEDAFIPNDTHLGSGPVPASRDGSDDGVTADDIQPFLAVVTGPNMSGKSTYMRQVALICLLAQSGSFVPAKAADLPILDRVFTRVGASDDIAGGRSTFMIEMTELATILDAATENSLVLLDEVGRGTSTADGLAIARAVTEYLHDEVGAYTLFATHHHDLTAVAAALSGATNRHFETSREDGDVRFDHELAPGPAAASYGVEVASMAGVPDSVVERSRDLLADAETADTGVEATRETEVASEPRPGTRADSETDSTATETTGPTENGAASAPAGEATSDDHAQEVFQTNGAAAEDELPESVAQQLASLDVATMTPIEAMNALADLQDRIE”: the protein production result is on record as “failed”.

Consider “MAGGGNRRDEGSITIQSTNLFAALDTRKKKKKSDKAGKSKGSSKSREPEKEPEPQVYWAPTPLKVKSWADIDDEDDDDDYYATTAPPQSGWSTSLPSHTDSKDVHVEESESEEDILDEGDDDVEEEQEQETEVQVHPEPEVKKAPEVPAPPKEAERQLSKKERKKKELAELEALLADFGVAPKENNGLEESQEAGQEKKEDVNGEGEKKENAAGGESKASKKKKKKDKQKEVKESQEQQANNNADAVDEAAGSEPTEEESPIDVKERIKKLASMKKKKSGKEVDAAAKAAAEEAAARRKKLAAAKKKEKNHYNQQPVR”, for which the protein production result is “failed”. In the case of “MAGHTDNEITIAAPMELVWNMTNDIEKWPGLFSEYASVEVLGRDDDKVTFRLTMHPDADGKVWSWVSERVADPVTRTVRAQRVETGPFQYMNIVWEYAETAEGTVMRWTQDFAMKPDAPVDDAWMTDNINRNSRTQMALIRDRIEQAAGERRTASVLADLEHHHHHH” it was “not failed”.

(Values after a protein production outcome set (Wang et al. 2014).)
